The target in this assay is KCNQ1 cardiac potassium channel (KvLQT1), full-length (UniProt P51787). Description: cell-based or functional assay.

“KCNE1-D85N (cardiac potassium channel minK subunit polypeptide with asparagine at amino acid 85)” had an increase of current after the 10th pulse of a depolarizing pulse train of 1.9 fold, a time constant for activation at +40 mV (first time constant) of 368 ms, a time constant for activation at +40 mV (second time constant) of 2150 ms and a time constant of deactivation (tail currents at -50 mV after activation at +60 mV) of 295 ms. Further, the voltage-dependence of activation, V1/2 was determined as 20.6 mV.

Source of the values: US20030108924A1.
